In article PMC8625556:

System: GST:p33ΔTMD (Citrus tristeza virus (isolate T36))
Experiment: EMSA

LMT1 full length (1-780) was tested, and the Kd was 122 nM.
